Source: patent US5198424A, “Functionally active selectin-derived peptides” (Board of Regents of the University of Oklahoma, priority 1992, dated 1993)

Target: T1, GMP-140 (Homo sapiens, UniProt P16109)
T1 sequence (P16109 42-830): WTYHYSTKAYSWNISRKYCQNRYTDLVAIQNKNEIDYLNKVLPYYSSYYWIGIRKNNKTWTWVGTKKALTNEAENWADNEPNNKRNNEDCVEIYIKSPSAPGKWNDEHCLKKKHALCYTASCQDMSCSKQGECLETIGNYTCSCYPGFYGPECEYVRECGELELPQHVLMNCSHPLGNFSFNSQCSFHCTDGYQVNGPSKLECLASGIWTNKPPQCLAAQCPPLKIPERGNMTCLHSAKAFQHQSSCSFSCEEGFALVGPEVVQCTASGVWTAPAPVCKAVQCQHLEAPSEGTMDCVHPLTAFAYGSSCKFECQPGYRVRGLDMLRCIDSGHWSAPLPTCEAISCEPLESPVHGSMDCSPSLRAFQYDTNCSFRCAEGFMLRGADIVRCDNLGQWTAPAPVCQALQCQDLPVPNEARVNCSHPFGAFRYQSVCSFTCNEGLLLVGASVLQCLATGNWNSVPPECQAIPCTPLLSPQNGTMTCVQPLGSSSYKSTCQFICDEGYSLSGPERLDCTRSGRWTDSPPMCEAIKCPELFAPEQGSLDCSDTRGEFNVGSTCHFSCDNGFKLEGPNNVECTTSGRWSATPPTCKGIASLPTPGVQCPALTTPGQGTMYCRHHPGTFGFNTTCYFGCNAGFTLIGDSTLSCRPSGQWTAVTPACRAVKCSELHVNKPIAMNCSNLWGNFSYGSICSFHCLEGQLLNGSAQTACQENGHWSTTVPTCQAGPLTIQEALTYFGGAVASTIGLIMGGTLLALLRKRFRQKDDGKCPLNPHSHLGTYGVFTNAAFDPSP
Assay: Binding of stimulated platelets to neutrophils in the presence of Ca2+
Format: cell-based
Set-up: GMP-140 also mediates adhesion of neutrophils to stimulated platelets; endogenous in cells; host or cells: stimulated platelets

B1: GMP-140: granule membrane protein 140, isolated from human platelet lysates by immunoaffinity and ion-exchange chromatography (protein, UniProt P16109 42-830, looked up)
P-selectin: WTYHYSTKAYSWNISRKYCQNRYTDLVAIQNKNEIDYLNKVLPYYSSYYWIGIRKNNKTWTWVGTKKALTNEAENWADNEPNNKRNNEDCVEIYIKSPSAPGKWNDEHCLKKKHALCYTASCQDMSCSKQGECLETIGNYTCSCYPGFYGPECEYVRECGELELPQHVLMNCSHPLGNFSFNSQCSFHCTDGYQVNGPSKLECLASGIWTNKPPQCLAAQCPPLKIPERGNMTCLHSAKAFQHQSSCSFSCEEGFALVGPEVVQCTASGVWTAPAPVCKAVQCQHLEAPSEGTMDCVHPLTAFAYGSSCKFECQPGYRVRGLDMLRCIDSGHWSAPLPTCEAISCEPLESPVHGSMDCSPSLRAFQYDTNCSFRCAEGFMLRGADIVRCDNLGQWTAPAPVCQALQCQDLPVPNEARVNCSHPFGAFRYQSVCSFTCNEGLLLVGASVLQCLATGNWNSVPPECQAIPCTPLLSPQNGTMTCVQPLGSSSYKSTCQFICDEGYSLSGPERLDCTRSGRWTDSPPMCEAIKCPELFAPEQGSLDCSDTRGEFNVGSTCHFSCDNGFKLEGPNNVECTTSGRWSATPPTCKGIASLPTPGVQCPALTTPGQGTMYCRHHPGTFGFNTTCYFGCNAGFTLIGDSTLSCRPSGQWTAVTPACRAVKCSELHVNKPIAMNCSNLWGNFSYGSICSFHCLEGQLLNGSAQTACQENGHWSTTVPTCQAGPLTIQEALTYFGGAVASTIGLIMGGTLLALLRKRFRQKDDGKCPLNPHSHLGTYGVFTNAAFDPSP
  binding of platelets to neutrophils: inhibited
